Bounds are passed on as bounds.

Among the targets are HLA-A*31:01; HLA-A*33:01; HLA-A*11:01; HLA-A*68:01; HLA-A*03:01.
Holding throughout (experiment): IEDB peptide-MHC binding, purified MHC/competitive/radioactivity; filed as Kd, often an IC50 or EC50 that approximates it; ≥ and ≤ were set here for values at or beyond the usual limits of such assays
Setting [1] is: source organism: SARS coronavirus Tor2.
Setting [2] is: source organism: Vaccinia virus WR.
The mark [3] stands for this setting: source organism: Mammarenavirus machupoense.

On to QQQGQTVTK, for which the Kd (as a rule, the free concentration of one partner at which half of the binding sites on the other are occupied at equilibrium, for simple one-to-one binding) in the experiment with HLA-A*31:01 (setting [1]) is 3030 nM; with HLA-A*33:01 (setting [1]), no less than 30400 nM; in the experiment with HLA-A*11:01 (setting [1]) it was 476 nM; with HLA-A*68:01 (setting [1]), no less than 50500 nM; with HLA-A*03:01 (setting [1]) it was 16600 nM.
VLSAATETY: the dissociation constant Kd with HLA-A*31:01 (setting [2]) is no less than 69700 nM; with HLA-A*33:01 (setting [2]) it was no less than 77700 nM; with HLA-A*11:01 (setting [2]), 6460 nM; with HLA-A*68:01 (setting [2]) it was 1470 nM; with HLA-A*03:01 (setting [2]), 3010 nM.
Taken in the same sequence, the figures for VVMAYVGIK were 2460 nM, no less than 23200 nM, 1.24 nM, 19 nM and 18.6 nM.
Regarding MLLQFAYSNR, the Kd with HLA-A*31:01 (setting [1]) came to 22.5 nM; with HLA-A*33:01 (setting [1]) it was 114 nM; in the experiment with HLA-A*11:01 (setting [1]), 860 nM; with HLA-A*68:01 (setting [1]), 50.8 nM; in the experiment with HLA-A*03:01 (setting [1]), 164 nM.
As to TSASEIKDR, the Kd with HLA-A*31:01 (setting [2]) is 18900 nM; with HLA-A*33:01 (setting [2]), 1340 nM; with HLA-A*11:01 (setting [2]) it was 1680 nM; with HLA-A*68:01 (setting [2]), 9.93 nM; with HLA-A*03:01 (setting [2]), no less than 78000 nM.
Taken in the same sequence, the figures for PSRSKMLKR were 1890 nM, no less than 51600 nM, 5560 nM, no less than 77700 nM and 16.4 nM.
Taken in the same sequence, the figures for LILSNKLLY were 5630 nM, 13200 nM, 192 nM, 5470 nM and 13.7 nM.
For the sequence VVMHINSPFK, the Kd with HLA-A*31:01 (setting [2]) was 123 nM; with HLA-A*33:01 (setting [2]), 11600 nM; in the experiment with HLA-A*11:01 (setting [2]) it was 2.56 nM; with HLA-A*68:01 (setting [2]), 37.4 nM; with HLA-A*03:01 (setting [2]), 8.41 nM.
Taken in the same sequence, the figures for YVKALTKNY were no less than 77900 nM, no less than 77700 nM, 12700 nM, 1800 nM and 1590 nM.
Taken in the same sequence, the figures for ISEKETLNEY were no less than 45800 nM, no less than 55600 nM, 3000 nM, no less than 35000 nM and no less than 70100 nM.
Take SSFDYCGVNH: the dissociation constant (Kd) with HLA-A*31:01 (setting [3]) was 1970 nM; with HLA-A*33:01 (setting [3]), 6430 nM; with HLA-A*11:01 (setting [3]), 4840 nM; with HLA-A*68:01 (setting [3]), 492 nM; with HLA-A*03:01 (setting [3]) it was 8190 nM.
Turning to YSFKLILAEY, the Kd was found to be 658 nM with HLA-A*31:01 (setting [2]); 7960 nM in the experiment with HLA-A*33:01 (setting [2]); 7290 nM with HLA-A*11:01 (setting [2]); 3670 nM with HLA-A*68:01 (setting [2]); 8180 nM with HLA-A*03:01 (setting [2]).
Taken in the same sequence, the figures for TFVNFNSVK were 103 nM, 197 nM, 21.4 nM, 12.5 nM and 784 nM.
Taken in the same sequence, the figures for SMTYLYNKY were no less than 25000 nM, 8750 nM, 1660 nM, 1750 nM and 9930 nM.
With LIPLSEMVVK, the dissociation constant Kd with HLA-A*31:01 (setting [2]) is 7380 nM; with HLA-A*33:01 (setting [2]), no less than 24900 nM; with HLA-A*11:01 (setting [2]), 55.2 nM; with HLA-A*68:01 (setting [2]), 1490 nM; in the experiment with HLA-A*03:01 (setting [2]), 766 nM.
Taken in the same sequence, the figures for YILQLIRHGR were 40.2 nM, 256 nM, no less than 27400 nM, 10.3 nM and 11200 nM.
Taken in the same sequence, the figures for QIDRLEDLSK were 6790 nM, 14700 nM, 255 nM, 2310 nM and 1450 nM.
Taken in the same sequence, the figures for RIGTAATKR were 17.2 nM, no less than 77700 nM, 2420 nM, 325 nM and 180 nM.

The values are drawn from the Immune Epitope Database (IEDB).
